Experimental data: paper PMC9246859 (Nature chemical biology, 2022)
Changes are numbered by the printed parent chain. Names may count otherwise. * marks the point of attachment. FITC = O=C1OC2(c3ccc(O)cc3Oc3cc(O)ccc32)c2ccc(NC(=S)*)cc21; βAla = NCCC(=O)O

Columns and labels:
[1] = target: T1, NorA (S. aureus quinolone efflux pump), C-terminal decahistidine tag, in PMAL-C8 amphipol (S. aureus) (UniProt Q5HHX4); test: MST
T1 sequence: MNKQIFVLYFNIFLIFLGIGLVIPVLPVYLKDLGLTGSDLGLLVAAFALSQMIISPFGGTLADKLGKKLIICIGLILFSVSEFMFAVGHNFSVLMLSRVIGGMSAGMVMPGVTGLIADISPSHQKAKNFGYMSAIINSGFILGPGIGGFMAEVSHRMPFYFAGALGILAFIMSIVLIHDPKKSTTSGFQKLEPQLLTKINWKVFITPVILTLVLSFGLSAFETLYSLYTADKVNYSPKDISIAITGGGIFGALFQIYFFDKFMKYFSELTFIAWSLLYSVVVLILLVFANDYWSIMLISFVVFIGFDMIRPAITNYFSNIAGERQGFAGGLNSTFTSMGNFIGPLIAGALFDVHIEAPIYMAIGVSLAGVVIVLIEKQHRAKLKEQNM

[2] = target: NorA (S. aureus quinolone efflux pump), C-terminal decahistidine tag, in PMAL-C8 amphipol (S. aureus, UniProt Q5HHX4); test: MST
[3] = target: T2, NorA (S. aureus quinolone efflux pump), C-terminal decahistidine tag, in PMAL-C8 amphipol (S. aureus, UniProt Q5HHX4 1-388); test: fluorescence polarisation
T2 sequence: T1 sequence

B1: Fab36 R134A (CDRH3 mutant) (Fab, V domains shown)
VH: EVQLVESGGGLVQPGGSLRLSCAASGFTFSSSSIHWVRQAPGKGLEWVASISSSSGSTSYADSVKGRFTISADTSKNTAYLQMNSLRAEDTAVYYCARYSRYYYYAWAVGGYWGGLDYWGQGTLVTVFN
VL: DIQMTQSPSSLSASVGDRVTITCRASQSVSSAVAWYQQKPGKAPKLLIYSASSLYSGVPSRFSGSRSGTDFTLTISSLQPEDFATYYCQQSSSSLITFGQGTKVEIK
For B1, which Kd [1] is on record?
Its Kd is over 14 µM.

B2: Fab25 (synthetic antigen-binding fragment against NorA) (Fab, V domains shown)
VH: EVQLVESGGGLVQPGGSLRLSCAASGFTFSSSSIHWVRQAPGKGLEWVASISSSSGSTSYADSVKGRFTISADTSKNTAYLQMNSLRAEDTAVYYCARWETGYYPYWRMYGFYWALDYWGQGTLVTVFN
VL: B1 VL
For B2, which Kd [2] is on record?
Its Kd is 1200 nM.

B3: Fab36 W133A (CDRH3 mutant) (Fab, V domains shown)
VH: B1 VH with W107A, A108R
VL: B1 VL
How did the “fold reduction of binding affinity against Fab36” value [2] turn out when B3 was run?
Its value is about 20 fold.

B4: Fab36 (synthetic antigen-binding fragment against NorA) (Fab, V domains shown)
VH: B1 VH with A108R
VL: B1 VL
B4 was tested. Which Kd [2] did it give?
Its Kd is 140 nM.

B5: FITC-NPI-1 (fluorescent analog of NPI-1) (peptide)
peptide: {FITC-βAla}-YYYYAWRVGGYWR-NH2
SMILES: CC(C)[C@H](NC(=O)[C@H](CCCNC(=N)N)NC(=O)[C@H](Cc1c[nH]c2ccccc12)NC(=O)[C@H](C)NC(=O)[C@H](Cc1ccc(O)cc1)NC(=O)[C@H](Cc1ccc(O)cc1)NC(=O)[C@H](Cc1ccc(O)cc1)NC(=O)[C@H](Cc1ccc(O)cc1)NC(=O)CCNC(=S)Nc1ccc2c(c1)C(=O)OC21c2ccc(O)cc2Oc2cc(O)ccc21)C(=O)NCC(=O)NCC(=O)N[C@@H](Cc1ccc(O)cc1)C(=O)N[C@@H](Cc1c[nH]c2ccccc12)C(=O)N[C@@H](CCCNC(=N)N)C(N)=O
For B5, which Kd [3] is on record?
The Kd was 10 nM.
